Test results from the supplement of paper PMC5998384.

Assays:
HeLa Kyoto [1] = experiment: solubility in G1/S (NP-40 vs SDS abundance) (log2 ratio); higher = more soluble; conditions: cell cycle stage: G1/S
HeLa Kyoto [2] = experiment: melting temperature (median over replicates), in situ; higher = more thermally stable
HeLa Kyoto [3] = experiment: solubility change mitosis vs G1/S (difference of NP-40 vs SDS log2 ratios) (log2 ratio difference); higher = more soluble in mitosis
HeLa Kyoto [4] = experiment: thermal stability score vs G1/S (z-score of summed log2 fold changes over temperatures); higher = more thermally stable than in G1/S
[5] = cell cycle stage: early G1 (4.5 h after nocodazole release)
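For melting temperature (median over replicates), in situ in this document: HeLa Kyoto cells synchronized by double thymidine or nocodazole block, proteins quantified by TMT10plex mass spectrometry, three independent biological replicates.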
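For solubility change mitosis vs G1/S (difference of NP-40 vs SDS log2 ratios) in this document: synchronized HeLa Kyoto cells (double thymidine block for G1/S, nocodazole release for mitosis), protein amounts in NP-40 versus SDS lysates quantified by mass spectrometry, three biological replicates.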
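For solubility in G1/S (NP-40 vs SDS abundance) in this document: HeLa Kyoto cells arrested at G1/S by double thymidine block, proteins quantified by TMT10plex mass spectrometry in mild NP-40 versus SDS extracts, three biological replicates.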
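For thermal stability score vs G1/S (z-score of summed log2 fold changes over temperatures) in this document: synchronized HeLa Kyoto cells, proteins quantified by TMT10plex mass spectrometry, three biological replicates, mitosis taken 0.5 h after nocodazole release, G1/S directly after double thymidine block.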

Sequence	solubility in G1/S (log2) (HeLa Kyoto [1])	melting temperature (HeLa Kyoto [2]; cell cycle stage: G1/S)	melting temperature (HeLa Kyoto [2]; cell cycle stage: mitosis)	solubility change mitosis (log2) (HeLa Kyoto [3])	thermal stability score (HeLa Kyoto [4]; [5])	thermal stability score (HeLa Kyoto [4]; cell cycle stage: mitosis)
MEVMNLMEQPIKVTEWQQTYTYDSGIHSGANTCVPSVSSKGIMEEDEACGRQYTLKKTTTYTQGVPPSQGDLEYQMSTTARAKRVREAMCPGVSGEDSSLLLATQVEGQATNLQRLAEPSQLLKSAIVHLINYQDDAELATRALPELTKLLNDEDPVVVTKAAMIVNQLSKKEASRRALMGSPQLVAAVVRTMQNTSDLDTARCTTSILHNLSHHREGLLAIFKSGGIPALVRMLSSPVESVLFYAITTLHNLLLYQEGAKMAVRLADGLQKMVPLLNKNNPKFLAITTDCLQLLAYGNQESKLIILANGGPQALVQIMRNYSYEKLLWTTSRVLKVLSVCPSNKPAIVEAGGMQALGKHLTSNSPRLVQNCLWTLRNLSDVATKQEGLESVLKILVNQLSVDDVNVLTCATGTLSNLTCNNSKNKTLVTQNSGVEALIHAILRAGDKDDITEPAVCALRHLTSRHPEAEMAQNSVRLNYGIPAIVKLLNQPNQWPLVKATIGLIRNLALCPANHAPLQEAAVIPRLVQLLVKAHQDAQRHVAAGTQQPYTDGVRMEEIVEGCTGALHILARDPMNRMEIFRLNTIPLFVQLLYSSVENIQRVAAGVLCELAQDKEAADAIDAEGASAPLMELLHSRNEGTATYAAAVLFRISEDKNPDYRKRVSVELTNSLFKHDPAAWEAAQSMIPINEPYGDDMDATYRPMYSSDVPLDPLEMHMDMDGDYPIDTYSDGLRPPYPTADHMLA [JUP]	-0.169	53.5 °C	52.8 °C	-0.103	-2.2	-2.86
MEVNPPKQEHLLALKVMRLTKPTLFTNIPVTCEEKDLPGDLFNQLMRDDPSTVNGAEVLMLGEMLTLPQNFGNIFLGETFSSYISVHNDSNQVVKDILVKADLQTSSQRLNLSASNAAVAELKPDCCIDDVIHHEVKEIGTHILVCAVSYTTQAGEKMYFRKFFKFQVLKPLDVKTKFYNAESDLSSVTDEVFLEAQIQNMTTSPMFMEKVSLEPSIMYNVTELNSVSQAGECVSTFGSRAYLQPMDTRQYLYCLKPKNEFAEKAGIIKGVTVIGKLDIVWKTNLGERGRLQTSQLQRMAPGYGDVRLSLEAIPDTVNLEEPFHITCKITNCSERTMDLVLEMCNTNSIHWCGISGRQLGKLHPSSSLCLALTLLSSVQGLQSISGLRLTDTFLKRTYEYDDIAQVCVVSSAIKVES [TRAPPC13]	0.0799	50 °C	49.9 °C	-0.173	-0.207	0.0312
MEVPAAGRVPAEGAPTAAVAEVRCPGPAPLRLLEWRVAAGAAVRIGSVLAVFEAAASAQSSGASQSRVASGGCVRPARPERRLRSERAGVVRELCAQPGQVVAPGAVLVRLEGCSHPVVMKGLCAECGQDLTQLQSKNGKQQVPLSTATVSMVHSVPELMVSSEQAEQLGREDQQRLHRNRKLVLMVDLDQTLIHTTEQHCQQMSNKGIFHFQLGRGEPMLHTRLRPHCKDFLEKIAKLYELHVFTFGSRLYAHTIAGFLDPEKKLFSHRILSRDECIDPFSKTGNLRNLFPCGDSMVCIIDDREDVWKFAPNLITVKKYVYFQGTGDMNAPPGSRESQTRKKVNHSRGTEVSEPSPPVRDPEGVTQAPGVEPSNGLEKPARELNGSEAATPRDSPRPGKPDERDIWPPAQAPTSSQELAGAPEPQGSCAQGGRVAPGQRPAQGATGTDLDFDLSSDSESSSESEGTKSSSSASDGESEGKRGRQKPKAAPEGAGALAQGSSLEPGRPAAPSLPGEAEPGAHAPDKEPELGGQEEGERDGLCGLGNGCADRKEAETESQNSELSGVTAGESLDQSMEEEEEEDTDEDDHLIYLEEILVRVHTDYYAKYDRYLNKEIEEAPDIRKIVPELKSKVLADVAIIFSGLHPTNFPIEKTREHYHATALGAKILTRLVLSPDAPDRATHLIAARAGTEKVLQAQECGHLHVVNPDWLWSCLERWDKVEEQLFPLRDDHTKAQRENSPAAFPDREGVPPTALFHPMPVLPKAQPGPEVRIYDSNTGKLIRTGARGPPAPSSSLPIRQEPSSFRAVPPPQPQMFGEELPDAQDGEQPGPSRRKRQPSMSETMPLYTLCKEDLESMDKEVDDILGEGSDDSDSEKRRPEEQEEEPQPRKPGTRRERTLGAPASSERSAAGGRGPRGHKRKLNEEDAASESSRESSNEDEGSSSEADEMAKALEAELNDLM [CTDP1]	0.0911	49.2 °C	50.6 °C	-0.102	1.52	2.78
MEVTGVSAPTVTVFISSSLNTFRSEKRYSRSLTIAEFKCKLELLVGSPASCMELELYGVDDKFYSKLDQEDALLGSYPVDDGCRIHVIDHSGARLGEYEDVSRVEKYTISQEAYDQRQDTVRSFLKRSKLGRYNEEERAQQEAEAAQRLAEEKAQASSIPVGSRCEVRAAGQSPRRGTVMYVGLTDFKPGYWIGVRYDEPLGKNDGSVNGKRYFECQAKYGAFVKPAVVTVGDFPEEDYGLDEI [TBCB]	0.266	49.5 °C	50.2 °C	0.119	-0.00262	0.00665
MFAEAAKTTRPCGMAEFKEKPEAPTEQLDVACGQENLPVGAWPPGAAPAPFQYTPDHVVGPGADIDPTQITFPGCICVKTPCLPGTCSCLRHGENYDDNSCLRDIGSGGKYAEPVFECNVLCRCSDHCRNRVVQKGLQFHFQVFKTHKKGWGLRTLEFIPKGRFVCEYAGEVLGFSEVQRRIHLQTKSDSNYIIAIREHVYNGQVMETFVDPTYIGNIGRFLNHSCEPNLLMIPVRIDSMVPKLALFAAKDIVPEEELSYDYSGRYLNLTVSEDKERLDHGKLRKPCYCGAKSCTAFLPFDSSLYCPVEKSNISCGNEKEPSMCGSAPSVFPSCKRLTLETMKMMLDKKQIRAIFLFEFKMGRKAAETTRNINNAFGPGTANERTVQWWFKKFCKGDESLEDEERSGRPSEVDNDQLRAIIEADPLTTTREVAEELNVNHSTVVRHLKQIGKVKKLDKWVPHELTENQKNRRFEVSSSLILRNHNEPFLDRIVTCDEKWILYDNRRRSAQWLDQEEAPKHFPKPILHPKKVMVTIWWSAAGLIHYSFLNPGETITSEKYAQEIDEMNQKLQRLQLALVNRKGPILLHDNARPHVAQPTLQKLNELGYEVLPHPPYSPDLLPTNYHVFKHLNNFLQGKRFHNQQDAENAFQEFVESQSTDFYATGINQLISRWQKCVDCNGSYFD [SETMAR]	-0.0719	51.9 °C	51.7 °C	-0.0662	1.42	0.689
MFEEPEWAEAAPVAAGLGPVISRPPPAASSQNKGSKRRQLLATLRALEAASLSQHPPSLCISDSEEEEEERKKKCPKKASFASASAEVGKKGKKKCQKQGPPCSDSEEEVERKKKCHKQALVGSDSAEDEKRKRKCQKHAPINSAQHLDNVDQTGPKAWKGSTTNDPPKQSPGSTSPKPPHTLSRKQWRNRQKNKRRCKNKFQPPQVPDQAPAEAPTEKTEVSPVPRTDSHEARAGALRARMAQRLDGARFRYLNEQLYSGPSSAAQRLFQEDPEAFLLYHRGFQSQVKKWPLQPVDRIARDLRQRPASLVVADFGCGDCRLASSIRNPVHCFDLASLDPRVTVCDMAQVPLEDESVDVAVFCLSLMGTNIRDFLEEANRVLKPGGLLKVAEVSSRFEDVRTFLRAVTKLGFKIVSKDLTNSHFFLFDFQKTGPPLVGPKAQLSGLQLQPCLYKRR [RRP8]	-1.46	49.1 °C	51.7 °C	0.852	1.48	2.48
MFFWCACCLMVAWRVSASDAEHCPELPPVDNSIFVAKEVEGQILGTYVCIKGYHLVGKKTLFCNASKEWDNTTTECRLGHCPDPVLVNGEFSSSGPVNVSDKITFMCNDHYILKGSNRSQCLEDHTWAPPFPICKSRDCDPPGNPVHGYFEGNNFTLGSTISYYCEDRYYLVGVQEQQCVDGEWSSALPVCKLIQEAPKPECEKALLAFQESKNLCEAMENFMQQLKESGMTMEELKYSLELKKAELKAKLL [C4BPB]	0.187	54.8 °C	54.8 °C	-0.0172	5.14	5.56
MFGAAGRQPIGAPAAGNSWHFSRTMEELVHDLVSALEESSEQARGGFAETGDHSRSISCPLKRQARKRRGRKRRSYNVHHPWETGHCLSEGSDSSLEEPSKDYRENHNNNKKDHSDSDDQMLVAKRRPSSNLNNNVRGKRPLWHESDFAVDNVGNRTLRRRRKVKRMAVDLPQDISNKRTMTQPPEGCRDQDMDSDRAYQYQEFTKNKVKKRKLKIIRQGPKIQDEGVVLESEETNQTNKDKMECEEQKVSDELMSESDSSSLSSTDAGLFTNDEGRQGDDEQSDWFYEKESGGACGITGVVPWWEKEDPTELDKNVPDPVFESILTGSFPLMSHPSRRGFQARLSRLHGMSSKNIKKSGGTPTSMVPIPGPVGNKRMVHFSPDSHHHDHWFSPGARTEHDQHQLLRDNRAERGHKKNCSVRTASRQTSMHLGSLCTGDIKRRRKAAPLPGPTTAGFVGENAQPILENNIGNRMLQNMGWTPGSGLGRDGKGISEPIQAMQRPKGLGLGFPLPKSTSATTTPNAGKSA [GPATCH2]	0.0278	51.7 °C	53 °C	-0.0138	-0.791	-1.01
MFGAGDEDDTDFLSPSGGARLASLFGLDQAAAGHGNEFFQYTAPKQPKKGQGTAATGNQATPKTAPATMSTPTILVATAVHAYRYTNGQYVKQGKFGAAVLGNHTAREYRILLYISQQQPVTVARIHVNFELMVRPNNYSTFYDDQRQNWSIMFESEKAAVEFNKQVCIAKCNSTSSLDAVLSQDLIVADGPAVEVGDSLEVAYTGWLFQNHVLGQVFDSTANKDKLLRLKLGSGKVIKGWEDGMLGMKKGGKRLLIVPPACAVGSEGVIGWTQATDSILVFEVEVRRVKFARDSGSDGHSVSSRDSAAPSPIPGADNLSADPVVSPPTSIPFKSGEPALRTKSNSLSEQLAINTSPDAVKAKLISRMAKMGQPMLPILPPQLDSNDSEIEDVNTLQGGGQPVVTPSVQPSLHPAHPALPQMTSQAPQPSVTGLQAPSAALMQVSSLDSHSAVSGNAQSFQPYAGMQAYAYPQASAVTSQLQPVRPLYPAPLSQPPHFQGSGDMASFLMTEARQHNTEIRMAVSKVADKMDHLMTKVEELQKHSAGNSMLIPSMSVTMETSMIMSNIQRIIQENERLKQEILEKSNRIEEQNDKISELIERNQRYVEQSNLMMEKRNNSLQTATENTQARVLHAEQEKAKVTEELAAATAQVSHLQLKMTAHQKKETELQMQLTESLKETDLLRGQLTKVQAKLSELQETSEQAQSKFKSEKQNRKQLELKVTSLEEELTDLRVEKESLEKNLSERKKKSAQERSQAEEEIDEIRKSYQEELDKLRQLLKKTRVSTDQAAAEQLSLVQAELQTQWEAKCEHLLASAKDEHLQQYQEVCAQRDAYQQKLVQLQEKCLALQAQITALTKQNEQHIKELEKNKSQMSGVEAAASDPSEKVKKIMNQVFQSLRREFELEESYNGRTILGTIMNTIKMVTLQLLNQQEQEKEESSSEEEEEKAEERPRRPSQEQSASASSGQPQAPLNRERPESPMVPSEQVVEEAVPLPPQALTTSQDGHRRKGDSEAEALSEIKDGSLPPELSCIPSHRVLGPPTSIPPEPLGPVSMDSECEESLAASPMAAKPDNPSGKVCVREVAPDGPLQESSTRLSLTSDPEEGDPLALGPESPGEPQPPQLKKDDVTSSTGPHKELSSTEAGSTVAGAALRPSHHSQRSSLSGDEEDELFKGATLKALRPKAQPEEEDEDEVSMKGRPPPTPLFGDDDDDDDIDWLG [FKBP15]	0.0656	49.6 °C	50 °C	-0.0387	-0.146	1.12
